Assay results: US20260092093A1 (TJ BIOPHARMA SHANGHAI, published 2026)
Changes are numbered by the printed parent chain.

B1: IL-18 variant polypeptide M27 (ligand)
chain: YFPKLRSKLSVIRNLNDQVLFIDQGNRPLFEDMTDSDCRDNAPRTIFIISMYKHSYTRGMAVTISVKCEKISTLSCENKIISFKEMNPPDVIKDTKSDIIFFQYSVPGHDNKMQFESSSYEGYFLACEKERDLFKLILKKEDELGDRSIMFTVQNED
B2: IL-18 variant polypeptide M30 (ligand)
chain: B1 chain with R6L, Y56T, T57V, V91S, Y104R
B3: IL-18 variant polypeptide M40 (ligand)
chain: B1 chain with P3D, R6K, H54P, Y56S, T57W, V91W, Y104R
B4: IL-18 variant polypeptide M34 (ligand)
chain: B1 chain with Y56R, T57N, Y104E
B5: IL-18 variant polypeptide M39 (ligand)
chain: B1 chain with H54W, Y56P, T57G, Y104L
B6: IL-18 variant polypeptide M38 (ligand)
chain: B1 chain with R6S, H54W, Y56G, T57A, Y104I
B7: IL-18 variant polypeptide M28 (ligand)
chain: B1 chain with R6A, H54W, Y56G, T57G
B8: IL-18 variant polypeptide M31 (ligand)
chain: B1 chain with Y56I, T57H, V91I
B9: IL-18 variant polypeptide M37 (ligand)
chain: B1 chain with R6G, H54Q, Y56V, T57W, V91N, Y104R
B10: IL-18 variant polypeptide M39 (ligand)
chain: B1 chain with H54W, Y56P, T57G, Y104L
B11: IL-18 variant polypeptide M27 (ligand)
chain: B1 chain
B12: IL-18 variant polypeptide M31 (ligand)
chain: B1 chain with Y56I, T57H, V91I
B13: IL-18 variant polypeptide M29 (ligand)
chain: B1 chain with R6M, H54F, Y56D, T57R, V91P, Y104R
B14: IL-18 variant polypeptide M38 (ligand)
chain: B1 chain with R6S, H54W, Y56G, T57A, Y104I
B15: IL-18 variant polypeptide M24 (ligand)
chain: B1 chain with H54Y, Y56T, T57S, V91N, Y104R
B16: IL-18 variant polypeptide M40 (ligand)
chain: B1 chain with P3D, R6K, H54P, Y56S, T57W, V91W, Y104R
B17: IL-18 variant polypeptide M32 (ligand)
chain: B1 chain with R6G, H54S, Y56S, T57R, V91N, Y104R
B18: IL-18 variant polypeptide M33 (ligand)
chain: B1 chain with P3E, R6H, H54R, Y56T, T57H, V91N, Y104R
B19: IL-18 variant polypeptide M26 (ligand)
chain: B1 chain with Y56D, T57K
B20: IL-18 variant polypeptide M37 (ligand)
chain: B1 chain with R6G, H54Q, Y56V, T57W, V91N, Y104R
B21: IL-18 variant polypeptide M35 (ligand)
chain: B1 chain with H54G, Y56G, T57A, V91G, Y104R
B22: IL-18 variant polypeptide M25 (ligand)
chain: B1 chain with H54L, Y56T, V91R, Y104R
B23: IL-18 variant polypeptide M30 (ligand)
chain: B1 chain with R6L, Y56T, T57V, V91S, Y104R
B24: IL-18 variant polypeptide M28 (ligand)
chain: B1 chain with R6A, H54W, Y56G, T57G
B25: IL-18 variant polypeptide M34 (ligand)
chain: B1 chain with Y56R, T57N, Y104E

Molecular target: T1, hIL-18 receptor (hIL-18Rα and hIL-18Rβ) (human, UniProt Q13478 19-541; O95256 20-599)
T1 sequence (looked up) 1: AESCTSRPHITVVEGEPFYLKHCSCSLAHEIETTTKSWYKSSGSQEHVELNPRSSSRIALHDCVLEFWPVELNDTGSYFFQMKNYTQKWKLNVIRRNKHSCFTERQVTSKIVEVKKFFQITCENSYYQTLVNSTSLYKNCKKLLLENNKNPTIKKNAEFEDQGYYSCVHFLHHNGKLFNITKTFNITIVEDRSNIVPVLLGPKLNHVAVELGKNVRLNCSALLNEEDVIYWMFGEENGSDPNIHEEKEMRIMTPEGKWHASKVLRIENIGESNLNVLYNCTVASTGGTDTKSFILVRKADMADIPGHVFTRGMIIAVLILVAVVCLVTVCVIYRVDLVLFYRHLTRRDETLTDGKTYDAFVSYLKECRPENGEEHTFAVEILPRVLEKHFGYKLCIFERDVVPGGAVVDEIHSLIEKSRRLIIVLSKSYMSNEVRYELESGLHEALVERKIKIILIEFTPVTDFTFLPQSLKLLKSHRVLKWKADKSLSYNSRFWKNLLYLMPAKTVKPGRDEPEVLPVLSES
T1 sequence (looked up) 2: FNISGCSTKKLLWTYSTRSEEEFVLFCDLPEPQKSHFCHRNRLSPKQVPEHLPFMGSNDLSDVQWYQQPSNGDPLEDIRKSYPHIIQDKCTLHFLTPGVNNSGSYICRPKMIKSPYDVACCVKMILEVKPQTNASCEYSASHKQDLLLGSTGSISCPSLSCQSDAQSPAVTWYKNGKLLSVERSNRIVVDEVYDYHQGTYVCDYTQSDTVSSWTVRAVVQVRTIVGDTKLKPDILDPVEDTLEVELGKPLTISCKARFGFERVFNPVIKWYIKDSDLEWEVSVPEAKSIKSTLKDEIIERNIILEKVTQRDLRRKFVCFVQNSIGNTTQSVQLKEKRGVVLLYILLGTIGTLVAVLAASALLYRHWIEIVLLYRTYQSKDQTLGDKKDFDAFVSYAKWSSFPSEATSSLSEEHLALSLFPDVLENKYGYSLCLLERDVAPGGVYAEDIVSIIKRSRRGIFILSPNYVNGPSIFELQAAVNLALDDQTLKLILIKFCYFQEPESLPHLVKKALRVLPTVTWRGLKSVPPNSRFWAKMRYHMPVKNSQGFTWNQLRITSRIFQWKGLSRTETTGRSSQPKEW
Test: cell-based or functional assay

Binder	EC50 (nM), hIL-18 reporter assay
B1	0.18 nM
B2	2.5 nM
B3	0.12 nM
B4	0.71 nM
B5	0.3 nM
B6	0.57 nM
B7	0.018 nM
B8	0.25 nM
B9	0.14 nM

Molecular target: T2, hIL-18BP-hFc (human, UniProt O95998 31-194, limits assumed)
T2 sequence (looked up): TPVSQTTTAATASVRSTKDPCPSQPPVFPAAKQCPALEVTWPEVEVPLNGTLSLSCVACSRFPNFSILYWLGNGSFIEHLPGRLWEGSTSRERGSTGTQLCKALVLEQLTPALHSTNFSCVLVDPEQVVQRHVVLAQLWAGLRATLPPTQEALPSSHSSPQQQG
Test: cell-based or functional assay

Binder	EC50 (nM) in the Presence of 1 µg/mL hIL-18BP-hFc, hIL-18 reporter assay	EC50 Fold Change (+BP/-BP), hIL-18 reporter assay
B1	0.26 nM	1.44 fold
B2	1.7 nM	0.68 fold
B3	0.16 nM	1.33 fold
B4	0.9 nM	1.27 fold
B5	0.44 nM	1.47 fold
B6	1.2 nM	2.11 fold
B7	0.042 nM	2.33 fold
B8	0.18 nM	0.72 fold
B9	0.33 nM	2.36 fold

Molecular target: T3, hIL-18Rα ECD-Fc fusion protein (human, UniProt Q13478 22-329)
T3 construct: extracellular domain; captured on Protein A sensor
T3 sequence (looked up): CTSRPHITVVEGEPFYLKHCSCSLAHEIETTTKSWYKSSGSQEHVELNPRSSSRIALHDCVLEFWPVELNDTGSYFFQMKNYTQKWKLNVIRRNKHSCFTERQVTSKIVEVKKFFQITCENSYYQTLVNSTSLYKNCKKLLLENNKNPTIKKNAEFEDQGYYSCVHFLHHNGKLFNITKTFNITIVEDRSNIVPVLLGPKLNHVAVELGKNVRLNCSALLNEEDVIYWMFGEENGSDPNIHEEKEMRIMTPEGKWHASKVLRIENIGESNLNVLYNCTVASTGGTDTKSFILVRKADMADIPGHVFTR
Test: BLI (Octet RED96), hIL-18Rα ECD-Fc on Protein A sensor
Method: The affinities of IL-18 variant polypeptides for hIL-18Rα were assessed by Biolayer Interferometry (BLI) on Octet RED96 using Protein A sensor coated with hIL-18Rα ECD-Fc fusion protein, and WT hIL-18 was used as a control.

Binder	Kd	Response (nm)	koff	kon
B10	20.6 nM	0.0605 nm	0.0221 s⁻¹	1.07e+06 M⁻¹ s⁻¹
B11	45.9 nM	0.0836 nm	0.00756 s⁻¹	165000 M⁻¹ s⁻¹
B12	54.1 nM	0.0947 nm	0.0189 s⁻¹	349000 M⁻¹ s⁻¹
B13	83.9 nM	0.0323 nm	0.0612 s⁻¹	730000 M⁻¹ s⁻¹
B14	120 nM	0.0307 nm	0.0334 s⁻¹	278000 M⁻¹ s⁻¹
B15	930 nM	0.0434 nm	0.0451 s⁻¹	48500 M⁻¹ s⁻¹
B16	32.6 nM	0.161 nm	0.0121 s⁻¹	371000 M⁻¹ s⁻¹
B17	17.3 nM	0.0381 nm	0.0234 s⁻¹	1.36e+06 M⁻¹ s⁻¹
B18	595 nM	0.0257 nm	0.0957 s⁻¹	161000 M⁻¹ s⁻¹
B19	57.1 nM	0.0917 nm	0.0119 s⁻¹	207000 M⁻¹ s⁻¹
B20	21.8 nM	0.222 nm	0.00883 s⁻¹	404000 M⁻¹ s⁻¹
B21	34.1 nM	0.129 nm	0.0156 s⁻¹	456000 M⁻¹ s⁻¹
B22	44.1 nM	0.0798 nm	0.0256 s⁻¹	581000 M⁻¹ s⁻¹
B23	30.2 nM	0.0275 nm	0.0389 s⁻¹	1.29e+06 M⁻¹ s⁻¹
B24	30.4 nM	0.178 nm	0.00966 s⁻¹	318000 M⁻¹ s⁻¹
B25	32.8 nM	0.084 nm	0.0166 s⁻¹	505000 M⁻¹ s⁻¹

Molecular target: T4, recombinant hIL-18Rα extracellular domain (human, UniProt Q13478 22-329, biotin label (selection) or fluorescent probe (single-clone FACS), sites not given)
T4 construct: extracellular domain; also called hIL-18Rα ECD; hIL-18Rα-ECD
T4 sequence (looked up): T3 sequence (looked up)
Test: single-clone FACS, yeast display, 10 nM labelled hIL-18Rα ECD
Method in brief: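 Yeast clones displaying IL-18 variants (screening rounds 4 and 5), at equal density, incubated with 10 nM fluorescently labelled hIL-18Rα ECD, then washed. Fraction of fluorescence-positive binding cells per clone measured by flow cytometry.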

Binder	% of fluorescence positive cells
B10	76.5%
B11	77.7%
B12	69%
B13	0.18%
B14	79.5%
B15	1.36%
B16	39.6%
B17	4.21%
B18	0.17%
B19	96.7%
B20	95.4%
B21	92.9%
B22	1.41%
B23	0.46%
B24	83.4%
B25	87.5%
